Assay results published in US5641629, “Spectroscopically detectable nucleic acid ligands”.

Assays:
[1] = biological target: T1, alpha-thrombin (Homo sapiens, UniProt P00734;P00734 P00734:328-363,P00734:364-622); experiment: FP; 140 mM NaCl, 20 mM Tris acetate, 1 mM CaCl2, 5 mM KCl, 1 mM MgCl2, pH 7.4, room temperature; delta mP +52
[2] = biological target: T2, serum albumin (HSA) (Homo sapiens, UniProt P02768 P02768:25-609); experiment: FP; HSA up to 247 nM; anisotropy 0.04429 free, 0.04433 with HSA; conditions: tags: Sigma; label: 5'-fluorescein (6-FAM, C6 linker)
[3] = biological target: T1, alpha-thrombin; experiment: FP; 140 mM NaCl, 20 mM Tris acetate, 1 mM CaCl2, 5 mM KCl, 1 mM MgCl2, pH 7.4, room temperature; delta mP +25
[4] = biological target: T2, serum albumin (HSA); experiment: FP; HSA up to 150 nM; conditions: tags: Sigma; label: 5'-fluorescein (6-FAM, C6 linker)
Experimental: (§1) The fluorescence polarization of the reaction mixtures was measured directly using 12×75 mm borosilicate glass test tubes. The maximum change in fluorescence polarization was reported as ΔmP (millipolarization units). As reported below in Table 1, the data represent the average of three readings at ambient temperature.

[5] = biological target: T2, serum albumin (HSA); experiment: FP; no detectable binding by fluorescence anisotropy; conditions: tags: Sigma; label: fluorescein (C6 linker)
Experimental: Compound 4 was the control prepared in Example 1, and as such was added to the thrombin dilutions and HSA dilutions at the same respective concentrations of Compounds 1, 2 and 3 above. Similarly, Compound 4 was then subjected to the same conditions as Compounds 1, 2 and 3, and analyzed with an SLM instrument to determine anisotropy values as described in Example 4 below.

[6] = biological target: T1, alpha-thrombin; experiment: FP; no detectable binding; anisotropy 0.0403 free, 0.0445 with thrombin
[7] = biological target: T1, alpha-thrombin; experiment: FP; 140 mM NaCl, 20 mM Tris acetate, 1 mM CaCl2, 5 mM KCl, 1 mM MgCl2, pH 7.4, room temperature; delta mP +55
[8] = biological target: T2, serum albumin (HSA); experiment: FP; HSA up to 1080 nM; conditions: tags: Sigma; label: fluorescein tethered at the T7 phosphorothioate via iodoacetamide
Experimental: A thrombin solution was prepared at 600 nM for the highest concentration in the same buffer as was used for Compound 1 in Example 3. Serial dilutions of this solution were then prepared to give a range of concentrations from 0.045 nM to 600 nM.
Compound 6 was then added to a sample of each dilution of thrombin solution and HSA solution to a concentration of 2.3 nM, then vortexed and let stand at room temperature for 15 minutes before fluorescence measurement was taken as described in Example 3. The data from the measurements is presented below as the average of three readings at ambient temperature.

[9] = biological target: T1, alpha-thrombin; experiment: FP; 140 mM NaCl, 20 mM Tris acetate, 1 mM CaCl2, 5 mM KCl, 1 mM MgCl2, pH 7.4, room temperature; delta mP +80
[10] = biological target: T2, serum albumin (HSA); experiment: FP; HSA up to 660 nM; conditions: tags: Sigma; label: 5'-thiazole orange (C3 linker)
Experimental: as §1

[11] = biological target: neutrophil elastase (Homo sapiens, UniProt P08246 P08246:30-267); experiment: FP; 150 mM NaCl, 2 mM MgCl2, 6 mM KCl, 10 mM Tris, pH 7.0, room temperature; delta mP +30; conditions: tags: Athens Research Technology; label: 5'-fluorescein (6-FAM, C6 linker)
Sequence of neutrophil elastase (P08246 30-267, one chain of several): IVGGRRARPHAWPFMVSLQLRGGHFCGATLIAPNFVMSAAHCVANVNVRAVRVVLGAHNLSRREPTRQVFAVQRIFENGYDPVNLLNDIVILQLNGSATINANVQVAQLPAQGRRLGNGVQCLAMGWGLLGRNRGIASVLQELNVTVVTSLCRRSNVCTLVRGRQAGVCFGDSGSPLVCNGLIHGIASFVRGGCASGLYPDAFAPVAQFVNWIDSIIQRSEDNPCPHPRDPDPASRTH
Experimental: An elastase solution was prepared from human neutrophil elastase (Athens Research Technology) at 180 nM for the highest concentration in a buffer of 150 mM NaCl, 2 mM MgCl_2, 6 mM KCl, 10 mM TRIS, pH 7.0. Serial dilutions of this solution were then prepared to give a range of concentrations from 0.027 nM to 180 nM.
as §1

B1: Compound 1 (ssDNA)
DNA: GGTTGGTGTGGTTGG
Kd [1]: 2 nM
binding result [2]: no binding

B2: Compound 2 (ssDNA)
DNA: CAGTCCGTGGTAGGGCAGGTTGGGGTGACTTCGTGGAA
Kd [3]: 1.5 nM
binding result [4]: no binding

B3: Compound 4 (scrambled control) (ssDNA)
DNA: GGTGGTGGTTGTGGT
binding result [5]: no binding
binding result [6]: no binding

B4: Compound 6 (ssDNA)
DNA: GGTTGGTGTGGTTGG
modifications: PS between G6 and T7
Kd [7]: 11.1 nM
binding result [8]: no binding

B5: Compound 3 (ssDNA)
DNA: GGTTGGTGTGGTTGG
Kd [9]: 5.7 nM
binding result [10]: no binding

B6: Compound 5 (ssDNA)
DNA: TAGCGATACTGCGTGGGTTGGGGCGGGTAGGGCCAGCAGTCTCGT
Kd [11]: 2.6 nM
